Data published in patent US20260049134A1 (UNIVERSITY OF FLORIDA RESEARCH FOUNDATION, published 2026).

Legend:
[1] = target: T1, PTPRG, endogenous in H929 multiple myeloma cells (human, UniProt P23470 20-1445); test: flow cytometry, AF647-IgG1 on H929 cells
T1 construct: Native protein on H929 cells (flow cytometry, siRNA knockdown) and in H929 lysates (IP/MS); also called phosphatase receptor type γ
Experimental: (§1) Staining protocol. Cells were harvested (5×10⁴ cells per sample), washed once with phosphate-buffered saline (PBS) at RT, and a second time with ice-cold FACS buffer (PBS, 0.5% BSA, 2 mM EDTA, 0.1% NaN₃). Cells were stained in 50 μL of primary antibody for 30 min on ice, washed twice with 100 μL FACS buffer, stained with 50 μL of diluted secondary antibody, washed two more times in FACS, and then resuspended in 50 μL FACS buffer. Samples were acquired on an Accuri C6 Plus or a BD FACSCanto II flow cytometer (both from BD Biosciences). Data were analyzed using FlowJo version 10 software. Primary antibodies: Fab (10 μg/mL), IgG1 (0.1 to 50 μg/mL), or 25 μL polyclonal Fabs from periplasmic extracts. Polyclonal Fabs were produced by diluting bacterial stocks by a factor of 100 in autoinduction media and incubating overnight to induce expression as previously described. […] Viability stains: DAPI (Cell Signaling Technology) or SYTOX AADvanced Dead Cell Stain (Thermo Fisher Scientific). Labeling: The panel of chimeric rabbit/human IgG1s was labeled using the Alexa Fluor 647 Labeling Kit (Thermo Fisher Scientific, #A20173) to facilitate single-step staining. Competition: Unlabeled IgG1s were added at saturating concentrations of 60 μg/mL to block the target receptors, incubating on ice for 30 min, followed by the addition of an equal volume of the Alexa Fluor 647 labeled antibody at 2 μg/mL, and the mixture was incubated on ice for another 30 min.

[2] = target: T2, ICAM1, endogenous in H929 multiple myeloma cells (human, UniProt P05362 28-532); test: flow cytometry, AF647-IgG1 on H929 cells
T2 construct: Native protein on H929 cells (flow cytometry, siRNA knockdown) and in H929 lysates (IP/MS); also called CD54
T2 sequence (P05362 28-532 limits assumed): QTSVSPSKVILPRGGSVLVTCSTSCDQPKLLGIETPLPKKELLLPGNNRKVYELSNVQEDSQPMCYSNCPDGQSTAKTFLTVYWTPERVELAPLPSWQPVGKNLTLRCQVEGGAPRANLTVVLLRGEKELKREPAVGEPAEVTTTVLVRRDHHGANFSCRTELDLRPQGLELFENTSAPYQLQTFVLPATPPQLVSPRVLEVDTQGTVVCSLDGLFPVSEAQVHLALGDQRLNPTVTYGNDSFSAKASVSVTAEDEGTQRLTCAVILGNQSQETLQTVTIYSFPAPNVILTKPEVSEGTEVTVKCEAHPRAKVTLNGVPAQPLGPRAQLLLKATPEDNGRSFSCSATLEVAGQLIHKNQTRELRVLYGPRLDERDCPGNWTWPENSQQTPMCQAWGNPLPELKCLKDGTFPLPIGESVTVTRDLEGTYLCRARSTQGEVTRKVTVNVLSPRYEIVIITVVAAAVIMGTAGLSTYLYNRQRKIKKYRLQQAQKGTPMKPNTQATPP
Experimental: as §1

[3] = target: T3, CADM1, endogenous in H929 multiple myeloma cells (human, UniProt Q9BY67 45-442); test: flow cytometry, AF647-IgG1 on H929 cells
T3 construct: Native protein on H929 cells (flow cytometry, siRNA knockdown) and in H929 lysates (IP/MS); also called IGSF4A
T3 sequence: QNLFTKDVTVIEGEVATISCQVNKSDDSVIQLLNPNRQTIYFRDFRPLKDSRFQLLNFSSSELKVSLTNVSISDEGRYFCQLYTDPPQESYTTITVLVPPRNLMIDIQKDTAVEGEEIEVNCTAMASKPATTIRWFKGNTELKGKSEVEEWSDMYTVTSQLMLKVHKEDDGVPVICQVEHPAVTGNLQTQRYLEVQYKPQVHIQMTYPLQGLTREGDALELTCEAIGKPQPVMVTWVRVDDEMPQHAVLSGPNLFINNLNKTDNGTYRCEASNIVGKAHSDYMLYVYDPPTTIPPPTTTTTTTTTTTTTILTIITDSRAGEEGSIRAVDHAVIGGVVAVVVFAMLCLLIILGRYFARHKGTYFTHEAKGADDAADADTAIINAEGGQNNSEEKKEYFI
Experimental: as §1

[4] = target: T4, GARS-His (Sino Biological) (human, UniProt P41250 37-739, limits assumed); test: ELISA, coated recombinant GARS-His, anti-human Fab-peroxidase detection
T4 construct: Bought; also called GARS1; glycyl-tRNA synthetase; not shown: His tag of the bought protein
T4 sequence: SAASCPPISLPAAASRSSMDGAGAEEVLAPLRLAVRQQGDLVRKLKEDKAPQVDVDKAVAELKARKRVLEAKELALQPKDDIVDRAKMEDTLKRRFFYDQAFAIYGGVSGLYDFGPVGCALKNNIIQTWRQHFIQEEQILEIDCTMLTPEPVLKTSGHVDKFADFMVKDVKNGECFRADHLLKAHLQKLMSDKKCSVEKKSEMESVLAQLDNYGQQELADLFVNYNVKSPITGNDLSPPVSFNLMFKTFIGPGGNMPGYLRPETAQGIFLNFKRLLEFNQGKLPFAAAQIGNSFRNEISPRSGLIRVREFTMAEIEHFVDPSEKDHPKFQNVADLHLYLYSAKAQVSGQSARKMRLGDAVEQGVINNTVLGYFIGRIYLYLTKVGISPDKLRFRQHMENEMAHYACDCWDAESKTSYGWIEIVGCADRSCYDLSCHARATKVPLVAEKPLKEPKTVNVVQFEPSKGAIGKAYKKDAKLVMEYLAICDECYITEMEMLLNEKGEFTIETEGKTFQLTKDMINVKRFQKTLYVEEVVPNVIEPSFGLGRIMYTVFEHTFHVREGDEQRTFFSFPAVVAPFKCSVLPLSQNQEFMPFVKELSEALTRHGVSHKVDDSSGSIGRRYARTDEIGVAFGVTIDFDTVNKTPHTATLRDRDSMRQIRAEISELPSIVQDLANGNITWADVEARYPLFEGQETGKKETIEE
Experimental: ELISA ELISA was conducted as described previously. Briefly, 50-150 ng of antigen was coated overnight in half-area 96-well plates at 4° C., blocked with 3% BSA at 37° C. for 1 h, and 150 ng of chimeric rabbit/human IgG1 was added, incubating for 2 h at 37° C. […] After incubating at 37° C. for 15 min-1 h (depending on intensity of controls), data were acquired using a SpectraMax M5 plate reader (Molecular Devices).

[5] = target: T1, PTPRG, endogenous in H929 multiple …; test: flow cytometry, H929 + GARS siRNA; None 452
[6] = target: T3, CADM1, endogenous in H929 multiple …; test: flow cytometry, H929 + GARS siRNA; None 0.2
[7] = target: T3, CADM1, endogenous in H929 multiple …; test: flow cytometry, H929 + GARS siRNA; None 452
[8] = target: T2, ICAM1, endogenous in H929 multiple …; test: flow cytometry, H929 + GARS siRNA; None 452
[9] = target: T2, ICAM1, endogenous in H929 multiple …; test: flow cytometry, H929 + CADM1 siRNA; None 0.89

T1 sequence (P23470 20-1445 limits assumed): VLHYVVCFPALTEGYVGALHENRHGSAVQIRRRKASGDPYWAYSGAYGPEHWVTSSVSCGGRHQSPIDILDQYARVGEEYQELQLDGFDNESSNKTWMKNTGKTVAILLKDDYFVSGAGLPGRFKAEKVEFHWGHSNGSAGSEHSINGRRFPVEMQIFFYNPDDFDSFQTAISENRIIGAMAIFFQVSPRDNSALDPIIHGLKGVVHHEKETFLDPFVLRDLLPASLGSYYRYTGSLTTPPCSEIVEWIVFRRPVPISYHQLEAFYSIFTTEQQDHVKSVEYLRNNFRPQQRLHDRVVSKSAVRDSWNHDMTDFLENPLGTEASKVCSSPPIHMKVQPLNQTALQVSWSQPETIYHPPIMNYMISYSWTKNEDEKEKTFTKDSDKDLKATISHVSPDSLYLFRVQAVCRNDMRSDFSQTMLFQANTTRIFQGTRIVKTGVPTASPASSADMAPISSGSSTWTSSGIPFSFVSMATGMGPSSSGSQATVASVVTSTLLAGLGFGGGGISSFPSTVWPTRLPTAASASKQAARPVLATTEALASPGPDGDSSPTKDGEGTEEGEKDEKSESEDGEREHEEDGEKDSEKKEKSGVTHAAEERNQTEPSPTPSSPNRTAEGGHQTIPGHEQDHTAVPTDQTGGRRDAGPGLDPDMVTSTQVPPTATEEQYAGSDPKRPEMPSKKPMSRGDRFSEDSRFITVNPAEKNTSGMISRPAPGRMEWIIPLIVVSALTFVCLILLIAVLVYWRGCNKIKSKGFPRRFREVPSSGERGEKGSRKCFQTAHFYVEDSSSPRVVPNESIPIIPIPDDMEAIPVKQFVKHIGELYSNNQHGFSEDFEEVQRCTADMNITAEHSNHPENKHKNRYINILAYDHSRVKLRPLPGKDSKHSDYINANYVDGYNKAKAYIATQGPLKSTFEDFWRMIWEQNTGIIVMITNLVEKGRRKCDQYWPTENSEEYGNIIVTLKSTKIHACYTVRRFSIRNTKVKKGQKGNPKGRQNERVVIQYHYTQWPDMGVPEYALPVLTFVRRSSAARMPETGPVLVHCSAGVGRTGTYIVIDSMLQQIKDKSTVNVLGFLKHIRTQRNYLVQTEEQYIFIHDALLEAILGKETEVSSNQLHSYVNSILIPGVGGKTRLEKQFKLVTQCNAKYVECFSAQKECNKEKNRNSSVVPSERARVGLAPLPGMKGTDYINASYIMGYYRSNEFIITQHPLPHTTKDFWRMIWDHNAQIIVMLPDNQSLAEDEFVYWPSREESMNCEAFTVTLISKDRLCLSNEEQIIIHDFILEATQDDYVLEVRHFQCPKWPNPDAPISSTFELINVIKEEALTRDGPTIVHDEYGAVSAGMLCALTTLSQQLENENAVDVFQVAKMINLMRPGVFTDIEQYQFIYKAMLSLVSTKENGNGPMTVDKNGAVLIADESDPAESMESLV

B1: TH9-0022 (antibody, human IgG1, kappa, L234A L235A, V domains shown)
VH: QSLEESGGRLVTPGTPLTLTCTVSGFSLSSYAMNWVRQAPGKGLEWIGIINSYGSTYYASWAKGRFTISKTSTTVDLKITSPTTEDTATYFCARVTYDSYGYGYAPYGMDLWGPGTLVTVSS
VL: LVMTQTPSSTSNAVGGTVTIKCQASQSIGNVLAWYQQKPGQPPKLLIYAASTLASGVPSRVGGSRSGTEYTLTISGVQREDAATYYCLGSDSDSDIAFGGGTELEILR
notes: also called TH9-022; negative control
[1]
  binding result: no binding
[2]
  binding result: no binding
[3]
  binding result: no binding

B2: HW-8 chimeric rabbit-human IgG1 LA/LA/PG (antibody, V domains shown)
VH: QSLEESGGRLVTPGTPLTLTCTVSGFSLSSYAMSWVRQAPGKGLEWIGAISTGGSTTYASWAKGRFTISKTSSTTVDLKMTSLTTEDTATYFCVRHFRLWGPGTLVTISS
VL: QVLTQTPSSVSAAVGGTVTIKCQASQSIGSALAWFQQKPGQRPKLLIYRASNLASGVPSRFKGSGSGTEFALTISGVQREDAATYYCLGGAAAVWAFGAGTNVEIKR
notes: Fc-silenced (L234A/L235A/P329G) IgG1, kappa; Alexa Fluor 647-labeled in single-step flow cytometry; Cluster C-45
[4]
  binding result: no binding (tested: 150 ng of IgG1 per well)

B3: HW-42 chimeric rabbit-human IgG1 LA/LA/PG (antibody, V domains shown)
VH: QSVKESEGGLFKPADTLTLTCTVSGFSLSSNEISWVRQAPGEGLEYIGIIDTGGRAYYAVWARSRSTITRNTNLNTVTLKMTSLTAADTATYFCARGGVDTEWYAFSSWGPGTLVTVPS
VL: SFVLTQPASVQVNLGQTVSLTCTADTLSRRYASWYQQKPGQAPVLLIFRDTSRPSGVPDRFSGSSSGDTATLTISGAQAGDEADYYCATSDGSGSNYQYVFGGGTQLTVTG
notes: Fc-silenced (L234A/L235A/P329G) IgG1, lambda; Alexa Fluor 647-labeled in single-step flow cytometry; Cluster C-1
[5]
  mAb binding (MFI): 9850

B4: HW-97 chimeric rabbit-human IgG1 LA/LA/PG (antibody, V domains shown)
VH: QKQLVESGGRLVTPGTPLTLTCTVTGIDLSSHGMSWVRQAPGKGLEWIGVIYPSGSTWYASWARGRFTISKTSTTVDLKMTSLTTEDTATHFCARGDVGGADNNIWGPGTLVTVSS
VL: SFVLTQPASVQVDLGQTVSLTCTAETLSRSYASWYQQKPGQAPVLLIYRDTSRPSGVPDRFSGSSSGNTATLTISGAQAGDEADYYCATSDGSGSSYQYVFGGGTQLTVTG
notes: Fc-silenced (L234A/L235A/P329G) IgG1, lambda; Alexa Fluor 647-labeled in single-step flow cytometry; Prototype of cluster C-97
[6]
  Cells stained (%): 99.9%
[7]
  mAb binding (MFI): 22100

B5: HW-113 chimeric rabbit-human IgG1 LA/LA/PG (antibody, V domains shown)
VH: QKQLVESGGGLVQPGGSLTLTCTVSGFSLNKYYMGWFRQAPGKGLEWIGVISRSGDTYYSSWAKGRFTISKASTTVDLRITSPTTEDTATYFCARDASSPGFHGDRLDLWGQGTLVTVSS
VL: SFVLTQPASVQVNLGQTVSLTCTADTLSRSYASWYQQKPGQAPVLLIYRDTSRPSGVPDRFSGSSSGNTATLTISGAQAGDEADYYCATSDGIGSNYLWVFGGGTQLTVTG
notes: Fc-silenced (L234A/L235A/P329G) IgG1, lambda; Alexa Fluor 647-labeled in single-step flow cytometry
[8]
  mAb binding (MFI): 43200
[9]
  Cells stained (%): 99.7%
